Experimental data: patent US6709814B1, “Peptides causing formation of compact structures” (Rigel Pharmaceuticals, Inc., priority 1998, dated 2004)
Bridge positions count the residues as written; N and C are the ends. Square brackets hold non-standard residues; d marks the D form. Ends that are not written are not given here. Peptide text beside a SMILES is read from it. pGlu = O=C1CC[C@@H](C(=O)O)N1

Assays:
[1] = biological target: T1, porcine pancreatic elastase (Sus scrofa, UniProt P00772); assay: Inhibition of porcine pancreatic elastase (succinyl-ala-ala-ala-p-nitroanilide cleavage); assay type: biochemical; details: pH 7.88, 25 C
T1 construct: purchased Sigma Chemical Co., St. Louis, Mo
Description: Inhibition by different peptide constructs was followed by preincubation of 10 μM peptide with elastase for 1-1.5 min. followed by addition of the substrate. Percent inhibition was calculated as [1−{assay slope(peptide+elastase)/assay slope(elastase alone)}]×100%.

[2] = biological target: T1, porcine pancreatic elastase; details: Leatherbarrow and Salacinski; read-out: reported apparent inhibition constant (Ki) for elastase; cited from earlier work
[3] = Observation of peptide dimers by electrospray MS / LC-MS under harsh conditions; assay type: binding; details: electrospray ion trap, infusion at pH 6.4 or C18 elution at ~pH 2.5 in acetonitrile
Text: The peptide also forms dimers (also detected by mass spectrometry) when eluted off a C18 reversed phase column at pH ˜2.5 in ca. 25% acetonitrile (FIG. 3B).
LC/MS examination of the crude synthesis products from an all-single coupled fmoc synthesis of EFLIVKS-amide, for shorter sequences which can dimerize after electrospray ionization is shown in FIG. 4. HPLC elution was with a gradient of 99.9% water-0.1% TFA to 99.9% acetonitrile-0.1% TFA. Dimers of the following truncated sequences were detected by mass spectrometry with the percent acetonitrile in parentheses, all at ˜pH 2.5: peak 1, […] (23.5%), monomer m/z=705.3, dimer m/z=1409.3; peak 4: EFLIVKS-amide (25%), monomer m/z=834.4, dimer m/z=1667.3; and peak 5, EFLIVK-amide (32%), monomer m/z=747.4, dimer m/z=1493.1.

[4] = Solubility of peptide constructs; assay type: physicochemical
[5] = cited from earlier work; for concentration at which dimers form / do not dissociate: aqueous solution, physiological conditions; for dimer formation of HA fragments: compared with HA
[6] = biological target: the molecule itself; assay: self-dimerization, electrospray mass spectrometry, relative dimer ion current against peptide concentration, pH 5.0
[7] = biological target: the molecule itself; assay: LC/MS, C18 reversed phase elution at ~pH 2.5, electrospray
[8] = biological target: porcine pancreatic elastase (porcine, UniProt P00772 27-266); assay: cell-based or functional assay
[9] = biological target: the molecule itself; assay: self-dimerization, electrospray mass spectrometry, alanine scan

T1 sequence (P00772 27-266): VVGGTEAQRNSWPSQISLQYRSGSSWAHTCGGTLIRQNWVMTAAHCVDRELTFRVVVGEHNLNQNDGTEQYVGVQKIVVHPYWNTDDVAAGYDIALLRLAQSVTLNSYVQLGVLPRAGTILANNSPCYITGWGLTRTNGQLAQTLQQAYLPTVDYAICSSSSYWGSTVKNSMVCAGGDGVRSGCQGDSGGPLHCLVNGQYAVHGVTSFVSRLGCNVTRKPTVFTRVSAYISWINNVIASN
porcine pancreatic elastase (porcine, UniProt P00772 27-266), sequence (P00772 27-266 limits assumed): as the sequence (P00772 27-266) above

Question: With O=S(=O)(F)Cc1ccccc1 [PMSF] as the molecule, how does the “inhibition of porcine pancreatic elastase” value ([1]; 2 mM PMSF) read?
Answer: 100%

Question: With CC[C@H](C)[C@@H]1NC(=O)[C@H](CCCNC(=N)N)NC(=O)[C@H](Cc2ccc(O)cc2)NC(=O)[C@H](CCC(=O)O)NC(=O)[C@H](CCSC)NC(=O)[C@H]([C@@H](C)O)NC(=O)[C@H](C(C)C)NC(=O)[C@H]([C@@H](C)CC)NC(=O)[C@H]([C@@H](C)O)NC(=O)CNC(=O)[C@@H](N)CSSC[C@@H](C(=O)O)NC(=O)[C@H](Cc2ccccc2)NC(=O)[C@H](CO)NC(=O)[C@H](CCCNC(=N)N)NC(=O)[C@H]([C@@H](C)O)NC(=O)[C@H](CCCNC(=N)N)NC(=O)[C@H](CC(=O)O)NC1=O [cyclic[CGTIVTMEYRIDRTRSFC]] (H-CGTIVTMEYRIDRTRSFC-OH; disulfide 1-18) as the molecule, how does the “inhibition of porcine pancreatic elastase” value ([1]; 500 nM peptide, 100 μM succ-ala-ala-ala-p-nitroanilide) read?
Answer: 6.2%

Question: What about the Ki [2] of the same molecule?
Answer: 0.00039 µM

Question: For EFLIVK-amide (EFLIVK-NH2), which “dimer detected by mass spectrometry” value [3] is on record?
Answer: Dimers

Question: For EFLIVKS, which “dimer detected by mass spectrometry” value ([3]; listed as EFLIVKS-amide) is on record?
Answer: self-associate to form dimers

Question: With “EFLIVKSSTKSIPPQSEFLIVKS [EFLIVKS-STKSIPPQS-EFLIVKS]” as the molecule, how does the solubility [4] read?
Answer: quite soluble at low pH

Question: Which “dimer detected by mass spectrometry” value [3] does the source give for LIVKS-amide here?
Answer: Dimers

Question: For SKVILFE, which “concentration at which dimers form / do not dissociate” value [5] is on record?
Answer: ~10^−13 M

Question: For “VSIKFEL [peptide designed to form a short beta sheet]”, which “dimer detected by mass spectrometry” value [3] is on record?
Answer: dimeric form of the peptide

Question: For [pGlu]PPGGSK, which “dimer formation of HA fragments” value [5] is on record?
Answer: did not lead to dimer formation

Question: Which “concentration at which dimers form / do not dissociate” value [5] does the source give for [pGlu]PPGGSKVILF [HA] here?
Answer: ≤ 10^−13 M

Question: Which “dimer formation of HA fragments” value [5] does the source give for pSKVILF here?
Answer: dimerized more efficiently

Question: Which “dimer formation of HA fragments” value [5] does the source give for pVILF here?
Answer: did not lead to dimer formation

Question: Which Kd [6] does the source give for AFLIVKS (Alanine scan analog of EFLIVKS (E1A)) here?
Answer: 12 µM

B1: EFLIVK-amide (peptide)
peptide: EFLIVK-NH2
notes: Truncated by-product of the EFLIVKS-amide synthesis; also called peak 5
Question: Does B1 bind [7]?
Answer: binds

B2: SKVILFE (peptide)
peptide: SKVILFE-NH2
notes: also called SKVILFE-amide; test peptide SKVILFE
Question: For B2, which Kd [6] is on record?
Answer: 12 µM

Question: Which “inhibition (% inhibition of elastase cleavage of succ-ala-ala-ala-p-nitroanilide)” value [8] does the source give for CGTIVTMEYRIDRTRSFC (disulfide 1-18) [cyclic[CGTIVTMEYRIDRTRSFC]] here?
Answer: 6.2%

B3: KFLIVKS (peptide)
peptide: KFLIVKS
notes: Analog of EFLIVKS with the N-terminal glu replaced by lys
Question: Which Kd [6] does the source give for B3 here?
Answer: 6.8 µM

Question: What does the source list for EFLIAKS (Alanine scan analog of EFLIVKS (V5A))?
Answer: fold weakening of self-binding against EFLIVKS [9]: 10 fold; Kd [6]: 82 µM

Question: Which “fold weakening of self-binding against EFLIVKS” value (from here on “fold weakening of self-binding”) [9] does the source give for EFAIVKS (Alanine scan analog of EFLIVKS (L3A)) here?
Answer: 9.7 fold

Question: What about the Kd [6] of the same molecule?
Answer: 76 µM

Question: For EALIVKS (Alanine scan analog of EFLIVKS (F2A)), which “fold weakening of self-binding” value [9] is on record?
Answer: 5.4 fold

Question: And the Kd [6]?
Answer: 42 µM

Question: With EFLIVKS-NH2 (also called EFLIVKS-amide; dimerizer) as the molecule, how does the Kd [6] read?
Answer: 7.8 µM

Question: For EFLIVKA (Alanine scan analog of EFLIVKS (S7A)), which Kd [6] is on record?
Answer: 9.9 µM

Question: For EFLAVKS (Alanine scan analog of EFLIVKS (I4A)), which “fold weakening of self-binding” value [9] is on record?
Answer: 5.4 fold

Question: And the Kd [6]?
Answer: 42 µM

B4: VSIKFEL (peptide)
peptide: VSIKFEL
notes: Peptide designed to form a short beta sheet
Question: With B4 as the molecule, how does the Kd [6] read?
Answer: 13 µM

Question: With EFLIVAS (Alanine scan analog of EFLIVKS (K6A)) as the molecule, how does the “fold weakening of self-binding” value [9] read?
Answer: 6 fold

Question: What about the Kd [6] of the same molecule?
Answer: > 50 µM
